Laboratory results taken from US20190185537A1 (AstraZeneca / MedImmune, published 2019).
Numbering of substitutions follows the chain as printed. Ends that are not written are not given here. * marks the point of attachment. Palmitoyl = CCCCCCCCCCCCCCCC(=O)*

T1: human glucose-dependent insulinotropic peptide (gastric inhibitory polypeptide) receptor (human) (UniProt P48546)
T1 sequence (looked up): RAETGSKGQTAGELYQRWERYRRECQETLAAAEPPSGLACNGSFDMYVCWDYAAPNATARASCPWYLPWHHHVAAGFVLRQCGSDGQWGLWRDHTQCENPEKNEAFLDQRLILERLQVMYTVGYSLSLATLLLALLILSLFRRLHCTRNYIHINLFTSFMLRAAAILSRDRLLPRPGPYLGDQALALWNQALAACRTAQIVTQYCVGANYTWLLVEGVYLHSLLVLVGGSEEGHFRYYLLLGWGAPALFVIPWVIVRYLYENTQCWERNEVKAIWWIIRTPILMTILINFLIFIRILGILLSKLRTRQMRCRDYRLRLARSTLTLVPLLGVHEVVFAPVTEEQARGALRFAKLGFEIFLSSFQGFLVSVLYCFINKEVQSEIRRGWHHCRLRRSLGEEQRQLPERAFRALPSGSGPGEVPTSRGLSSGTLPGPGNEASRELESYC

T2: human glucose-dependent insulinotropic peptide (gastric inhibitory polypeptide) receptor (human, UniProt P48546 22-466)
T2 sequence (looked up): T1 sequence (looked up)

T3: mouse GLP-1 receptor (mouse, UniProt O35659 22-463)
T3 sequence (looked up): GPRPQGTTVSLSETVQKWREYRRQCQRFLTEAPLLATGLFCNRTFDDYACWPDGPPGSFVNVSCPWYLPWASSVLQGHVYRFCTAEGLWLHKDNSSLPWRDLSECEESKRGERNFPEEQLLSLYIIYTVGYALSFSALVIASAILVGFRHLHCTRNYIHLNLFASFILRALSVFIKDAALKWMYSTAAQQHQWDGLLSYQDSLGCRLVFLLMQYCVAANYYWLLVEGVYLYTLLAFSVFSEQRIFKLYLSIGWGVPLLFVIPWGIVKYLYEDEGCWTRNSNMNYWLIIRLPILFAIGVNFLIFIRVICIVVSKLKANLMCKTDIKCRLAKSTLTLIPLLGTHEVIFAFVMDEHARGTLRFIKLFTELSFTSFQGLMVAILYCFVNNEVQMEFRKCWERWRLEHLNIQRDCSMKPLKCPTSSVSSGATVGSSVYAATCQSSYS

T4: rat GLP-1 receptor (rat, UniProt P32301 22-463)
T4 sequence (looked up): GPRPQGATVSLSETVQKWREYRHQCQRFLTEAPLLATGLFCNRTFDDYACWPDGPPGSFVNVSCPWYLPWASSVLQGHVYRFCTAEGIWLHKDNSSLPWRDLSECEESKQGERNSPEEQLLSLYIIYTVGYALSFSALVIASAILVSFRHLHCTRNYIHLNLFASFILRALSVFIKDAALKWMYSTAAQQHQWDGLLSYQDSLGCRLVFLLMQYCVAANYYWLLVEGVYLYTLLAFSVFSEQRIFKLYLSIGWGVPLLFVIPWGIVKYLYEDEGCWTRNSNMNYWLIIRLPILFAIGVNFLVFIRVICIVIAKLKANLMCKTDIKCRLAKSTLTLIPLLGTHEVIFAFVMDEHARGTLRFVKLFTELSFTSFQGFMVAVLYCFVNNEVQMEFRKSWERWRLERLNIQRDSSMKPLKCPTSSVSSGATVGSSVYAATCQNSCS

B1: g320 (peptide)
peptide: HSQGTFTSDYSKYLDSRRAQDFVQWLVAGGPSSGAPPPSK(Palmitoyl)-NH2
B2: g319 (peptide)
peptide: HSQGTFTSDYSKYLDSRRAQDFVQWLVAGGPSSGAPPPSK-NH2
B3: G849 (peptide)
peptide: HSQGTFTSDKSRYLDSRSARDFVAWLEAGG
modifications: X10 = K(gE-palm); C-terminal amide
B4: G796 (peptide)
peptide: B3 peptide with R12S, S18R
modifications: X10 = K(gE-palm); C-terminal amide

What follows are binders tested against human GLP-1 receptor (human) (UniProt P43220) (assay: cell-based or functional assay).
human GLP-1 receptor (human), sequence (P43220 24-463): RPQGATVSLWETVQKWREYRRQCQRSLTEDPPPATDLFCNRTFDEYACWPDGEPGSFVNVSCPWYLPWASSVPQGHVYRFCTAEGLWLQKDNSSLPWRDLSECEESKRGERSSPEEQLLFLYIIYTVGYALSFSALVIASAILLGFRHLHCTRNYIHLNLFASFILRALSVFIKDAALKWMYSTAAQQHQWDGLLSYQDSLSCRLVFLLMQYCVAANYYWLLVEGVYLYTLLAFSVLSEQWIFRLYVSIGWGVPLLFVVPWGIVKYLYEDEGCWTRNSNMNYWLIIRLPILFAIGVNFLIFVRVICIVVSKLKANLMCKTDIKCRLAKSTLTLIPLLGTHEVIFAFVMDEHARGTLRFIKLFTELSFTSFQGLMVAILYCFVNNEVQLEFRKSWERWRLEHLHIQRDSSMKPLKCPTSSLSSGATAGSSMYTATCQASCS

Row | Binder | cAMP EC50 (assay 1) [pM]
1 | B1 | 9.38
2 | B2 | 36.1

The binders below were run against human glucagon receptor (human) (UniProt P47871) (assay: cell-based or functional assay).
human glucagon receptor (human), sequence (P47871 26-477): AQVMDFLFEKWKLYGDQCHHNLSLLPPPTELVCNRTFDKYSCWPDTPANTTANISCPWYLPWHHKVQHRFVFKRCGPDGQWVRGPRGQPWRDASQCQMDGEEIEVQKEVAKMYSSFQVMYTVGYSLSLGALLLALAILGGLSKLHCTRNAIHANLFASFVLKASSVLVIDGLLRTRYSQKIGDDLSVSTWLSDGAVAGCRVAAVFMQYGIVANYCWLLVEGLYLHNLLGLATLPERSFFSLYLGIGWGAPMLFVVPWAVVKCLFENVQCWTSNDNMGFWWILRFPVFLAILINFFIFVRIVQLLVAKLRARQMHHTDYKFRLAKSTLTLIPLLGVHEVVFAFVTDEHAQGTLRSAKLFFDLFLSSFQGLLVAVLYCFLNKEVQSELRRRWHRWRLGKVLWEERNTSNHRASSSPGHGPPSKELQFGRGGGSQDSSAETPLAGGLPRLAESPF

Row | Binder | cAMP EC50 (assay 1) [pM]
3 | B1 | 3.2
4 | B2 | 10.4

Each binder was assayed against T1, human glucose-dependent insulinotropic peptide (gastric inhibitory polypeptide) receptor (human) (assay: cell-based or functional assay).

Row | Binder | cAMP EC50 (assay 1) [pM]
5 | B1 | 1010

The binders below were run against T5, human GLP-1 receptor (human, UniProt P43220 24-463) (assay: cell-based or functional assay).

Row | Binder | EC50 at the GLP1R at 0% HSA (calculated) [pM]
6 | B3 | 2

These binders were tested against T6, human glucagon receptor (human, UniProt P47871 26-477) (assay: cell-based or functional assay).
T6 sequence (P47871 26-477): as above

Row | Binder | cAMP EC50 (assay 1) [pM]
7 | B4 | 1.76
8 | B3 | 2.26

Target: T5, human GLP-1 receptor
Experiment: cell-based or functional assay
Remark: another data set of the same source

Row | Binder | cAMP EC50 (assay 1) [pM]
9 | B4 | 13
10 | B3 | 9

The binders below were run against T2, human glucose-dependent insulinotropic … (assay: cell-based or functional assay).

Row | Binder | cAMP EC50 (assay 1) [pM]
11 | B4 | 14000
12 | B3 | 17000

Target: T6, human glucagon receptor
Experiment: cell-based or functional assay
Remark: another data set of the same source

Row | Binder | cAMP EC50 (assay 1) [pM]
13 | B4 | 1.81

Target: T5, human GLP-1 receptor
Experiment: cell-based or functional assay
Remark: another data set of the same source

Row | Binder | cAMP EC50 (assay 1) [pM]
14 | B4 | 14
15 | B3 | 9.07

Target: T2, human glucose-dependent insulinotropic …
Experiment: cell-based or functional assay
Remark: another data set of the same source

Row | Binder | cAMP EC50 (assay 1) [pM]
16 | B4 | 17400
17 | B3 | 18100

Target: T6, human glucagon receptor
Experiment: cell-based or functional assay
Remark: another data set of the same source

Row | Binder | cAMP EC50 (assay 2, 4.4% human serum albumin) [pM]
18 | B4 | 53
19 | B3 | 79

Target: T5, human GLP-1 receptor
Experiment: cell-based or functional assay
Remark: another data set of the same source

Row | Binder | cAMP EC50 (assay 2, 4.4% human serum albumin) [pM]
20 | B4 | 140
21 | B3 | 172

What follows are binders tested against T3, mouse GLP-1 receptor (assay: cell-based or functional assay).

Row | Binder | cAMP EC50 (assay 2, 3.2% mouse serum albumin) [pM]
22 | B4 | 130

These binders were tested against mouse glucagon receptor (mouse, UniProt Q61606 27-485) (assay: cell-based or functional assay).
mouse glucagon receptor, sequence (Q61606 27-485): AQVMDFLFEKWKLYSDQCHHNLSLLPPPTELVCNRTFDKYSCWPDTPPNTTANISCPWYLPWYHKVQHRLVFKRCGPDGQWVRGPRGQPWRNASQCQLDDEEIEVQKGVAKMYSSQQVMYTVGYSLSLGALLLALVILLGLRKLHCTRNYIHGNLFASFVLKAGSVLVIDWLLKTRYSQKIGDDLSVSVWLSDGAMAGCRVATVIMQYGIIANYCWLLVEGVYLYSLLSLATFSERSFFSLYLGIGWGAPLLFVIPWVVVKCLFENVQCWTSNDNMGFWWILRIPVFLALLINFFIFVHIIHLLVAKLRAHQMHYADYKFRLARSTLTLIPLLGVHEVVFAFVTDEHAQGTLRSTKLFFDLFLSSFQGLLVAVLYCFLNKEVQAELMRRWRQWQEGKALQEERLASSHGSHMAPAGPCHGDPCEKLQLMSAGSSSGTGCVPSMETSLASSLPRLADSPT

Row | Binder | cAMP EC50 (assay 2, 3.2% mouse serum albumin) [pM]
23 | B4 | 34
24 | B3 | 103

These binders were tested against T4, rat GLP-1 receptor (assay: cell-based or functional assay).

Row | Binder | cAMP EC50 (assay 2, 3.2% rat serum albumin) [pM]
25 | B4 | 23
26 | B3 | 44

Each binder was assayed against rat glucagon receptor (rat, UniProt P30082 27-485) (assay: cell-based or functional assay).
rat glucagon receptor, sequence (P30082 27-485): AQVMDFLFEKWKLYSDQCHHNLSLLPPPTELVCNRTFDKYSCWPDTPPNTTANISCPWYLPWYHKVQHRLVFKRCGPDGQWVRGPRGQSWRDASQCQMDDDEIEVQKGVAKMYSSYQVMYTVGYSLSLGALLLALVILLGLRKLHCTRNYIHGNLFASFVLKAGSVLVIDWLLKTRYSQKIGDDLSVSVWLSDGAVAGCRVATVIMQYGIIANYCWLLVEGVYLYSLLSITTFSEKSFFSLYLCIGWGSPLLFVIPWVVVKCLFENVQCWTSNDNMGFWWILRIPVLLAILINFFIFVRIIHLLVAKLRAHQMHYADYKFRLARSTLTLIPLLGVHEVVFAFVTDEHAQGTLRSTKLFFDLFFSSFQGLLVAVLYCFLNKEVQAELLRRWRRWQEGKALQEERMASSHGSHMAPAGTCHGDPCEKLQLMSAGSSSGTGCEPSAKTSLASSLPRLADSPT

Row | Binder | cAMP EC50 (assay 2, 3.2% rat serum albumin) [pM]
27 | B4 | 2000
28 | B3 | 4060

The binders below were run against human serum albumin (human) (UniProt P02768) (assay: calculated from the variation in cAMP generation with the HSA concentration).
human serum albumin (human), sequence (P02768 25-609 limits assumed): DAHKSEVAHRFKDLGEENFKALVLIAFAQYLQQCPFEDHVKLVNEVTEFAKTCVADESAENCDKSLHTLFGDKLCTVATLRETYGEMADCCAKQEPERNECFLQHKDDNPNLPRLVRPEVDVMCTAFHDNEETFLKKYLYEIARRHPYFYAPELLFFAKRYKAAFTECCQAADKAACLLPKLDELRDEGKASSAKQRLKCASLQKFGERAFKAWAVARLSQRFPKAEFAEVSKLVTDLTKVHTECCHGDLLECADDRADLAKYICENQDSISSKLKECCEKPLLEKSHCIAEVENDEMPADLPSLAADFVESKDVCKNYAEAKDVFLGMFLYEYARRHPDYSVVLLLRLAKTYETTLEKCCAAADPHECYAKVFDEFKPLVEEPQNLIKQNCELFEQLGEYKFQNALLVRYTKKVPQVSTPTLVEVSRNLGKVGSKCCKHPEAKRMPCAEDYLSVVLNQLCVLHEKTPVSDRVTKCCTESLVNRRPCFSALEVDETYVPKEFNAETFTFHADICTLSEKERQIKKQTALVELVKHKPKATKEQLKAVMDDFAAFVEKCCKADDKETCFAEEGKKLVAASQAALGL

Row | Binder | free peptide at 4.4% HSA [%]
29 | B3 | 0.48
